Assay results reported in the supplement of paper PMC10567573.

B1: KCNAB2 (parent)
chain: IPPYSRASLKGYQWLKDKILSEEG
B2: PSD2 (parent)
chain: PLMGETQERERVLTHFSRRYCQCN

Variants of: B1
Experiment: protein stability index of a GFP-peptide fusion (GPS, HEK-293T) (PSI 1-6); higher = more stable
Conditions: c terminus: a fixed tail appended
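Note: lentivirally expressed fusions sorted by FACS into six bins by GFP to DsRed ratio, PSI derived from sequencing read proportions per bin multiplied by bin number.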

Protein stability index of substitutions, site by site:
L15: I 2.11 | R 2.37 | F 2.59 | M 2.47 | Y 2.19 | S 3.53 | K 3.22 | N 3.64
K16: L 1.02 | S 2.38 | P 3.39 | G 3.26 | T 2.74 | H 1.53 | Y 1.84 | A 1.82 | D 3.77 | I 2.49
W14: L 3.57 | N 3.78 | T 3.3 | Y 3.32 | Q 3.04 | S 2.95 | M 3.66 | I 3.45 | D 3.73 | E 3.59 | H 3.57 | F 4.47
Q13: N 2.32 | A 1.82 | T 2.55 | E 2.34 | Y 1.53 | R 2.49 | C 1.84 | H 2.46 | V 2.08 | D 3.63 | F 2.6
G24: L 1.43 | Y 1.48 | W 1.35 | Q 3.79 | V 1.77 | T 1.99 | I 1.81 | N 2.05 | E 3.1 | F 1.99 | K 2.61
R6: A 2.82 | C 1.94 | S 3.06 | F 2.16 | H 2.2 | Y 1.6 | T 2.59 | I 2.06 | K 2.56 | L 2.45
I19: V 3.17 | E 4 | M 3.53 | R 3.32 | S 3.16 | D 3.73
S8: A 2.6 | T 2.24 | D 2.53 | Y 1.9
Y4: F 2.14 | C 1.6 | I 2.29 | G 2.76 | E 4.16 | M 1.83 | L 1.34 | A 2.77 | Q 2.96 | V 2.49
K10: M 2.4 | F 1.67 | A 2.47 | H 2.91 | Y 2.84 | L 2.37 | I 2.2 | R 1.68 | S 3.34 | E 3.57 | T 3.38
K18: P 2.83 | W 1.39 | H 1.98 | F 1.96 | L 1.6 | Y 2.05 | N 3.29 | C 2.51 | G 2.95 | M 2.78 | A 2.63 | T 2.11
P2: Y 2.56 | D 1.7 | S 2.66 | M 1.37 | H 1.92 | A 1.52 | I 1.25 | L 2.04 | Q 2.92 | R 2.62 | N 1.86
S5: N 2.21 | A 2.15 | Q 2.45 | G 3.42 | E 3.09 | H 2.63 | P 3.12 | K 2
E23: F 3.45 | Q 2.39 | I 2.62 | H 1.76 | P 1.6 | K 1.84 | T 3.2 | V 2.5 | D 1.51 | A 3.77
E22: F 2.12 | N 2.26 | H 1.45 | Q 2.47 | V 1.22 | G 1.68 | K 1.75 | C 2.09 | A 2.74 | D 2.68
D17: H 2.69 | K 2.04 | A 2.65 | R 1.91 | N 2.39 | S 1.6 | V 2.51 | P 2.46 | F 2.25 | E 1.26 | Q 2.18 | I 1.69 | T 1.68
L20: T 3.54 | A 3.71 | N 3.06 | H 2.16 | M 2.47 | S 2.92 | V 2 | E 3.75 | Y 2.51 | W 2.54 | K 2.81 | D 3.91 | F 1.98
I1: G 2.19 | T 2.99 | P 2.82 | S 3.37 | D 3.51 | V 2.77 | K 2.33 | N 2.5 | E 3.38 | A 2.6 | F 2.15
Y12: S 4.02 | R 3.44 | H 3.62 | G 3.5 | T 3.81 | F 2.84 | D 3.97 | W 1.32 | I 2.45 | N 3.13
S21: A 2.8 | P 2.45 | C 2.42 | I 2.3 | Y 2.08 | G 1.86 | K 3.24 | D 3.56
P3: R 3.2 | T 2.06 | E 2.5 | K 2.75 | N 2.48 | L 3.1 | C 1.51 | F 2.85 | V 2.3 | G 1.78 | D 3.1 | Y 2.53 | A 2.27
L9: M 2.24 | I 2.56 | P 3.25 | R 3.33 | G 3.22 | W 2.22 | S 3.84 | N 3.15 | Y 2.4 | F 2.61 | H 2.38 | A 2.56 | K 2.53 | D 2.44 | C 1.77 | Q 2.28
A7: C 1.59 | D 3.15 | M 1.8 | Q 2.58 | I 1.93 | V 2.41 | K 1.9 | R 1.95 | G 2.58 | S 3.32 | T 2.23
G11: H 2.19 | D 2.89 | M 2.08 | R 2.66 | C 1.92 | P 2.46 | T 2.1 | Y 2.91 | A 1.8

Variants of: B2
Experiment: as above
Conditions: c terminus: a fixed tail appended

Protein stability index: each site, then its substitutions
S17: A 2.11
T14: D 2.92 | A 2.62
G4: F 2.31 | S 2.92 | E 3.95
R9: H 3.23 | T 2.58 | P 3.29
C23: D 4.04 | V 3.56 | K 4.92 | P 4.09 | W 2.67 | F 3.18 | I 2.99
L13: M 3.3 | R 4.15 | W 2.7
E10: H 2.23 | I 2.1 | A 2.07 | Y 1.73
R18: I 2.27 | S 3.54 | A 3.49 | G 4.12
N24: D 3.23
R19: D 3.25 | Q 3.29 | E 3.74
E5: A 2.78 | C 1.32 | S 2.66 | D 2.38 | T 2.09
F16: C 4.41 | K 3 | L 3.79 | I 2.67 | V 3 | W 2.1
Q7: T 2.69 | L 2.61
M3: Y 2 | W 2.79 | E 3.3 | I 2.37
Y20: T 3.63 | S 3.84
V12: S 3.03 | T 3.73 | N 2.99 | Q 3.6 | Y 3.25 | F 3.5 | M 2.85 | K 2.96
H15: I 2.32
Q22: N 3.18 | D 3.85 | L 2.39 | P 2.71 | M 2.1 | C 2.11
E8: F 1.67 | R 2.78 | G 2.35
C21: K 2.88 | D 4.01 | V 3.68
P1: Y 3.12
R11: Q 3.46 | E 3.98 | S 2.53 | I 2.35
T6: D 2.98 | Q 2.97
L2: S 3.19 | F 2.41 | M 2.56 | V 3.35 | N 3.42 | Y 1.9 | Q 3.35 | W 2.58
